Measured values taken from patent US20240238445A1, “INHIBITORS AND USES THEREOF” (NEURACLE SCIENCE CO., LTD., priority 2021, published 2024).

B1: LRRC4B (453-576): LRRC4B ectodomain fragment, amino acids 453-576 of SEQ ID NO: 2; FLAG-tagged or hFc-fused (protein)
chain: VSAVDPVAAGGTGSGGGGPGGSGGVGGGSGGYTYFTTVTVETLETQPGEEALQPRGTEKEPPGPTTDGVWGGGRPGDAAGPASSSTTAPAPRSSRPTEKAFTVPITDVTENALKDLDDVMKTTK
modifications: FLAG tag or human Fc
notes: FLAG-tagged or hFc-fused

How the values were obtained:
[1] = biological target: binding of FAM19A5 protein to full-length ectodomain of LRRC4C protein (Homo sapiens, UniProt Q7Z5A7); experiment: Competitive inhibition assay, plate coated with full-length ectodomain of LRRC4C; settings: FAM19A5 5 ng/mL; 100 nM/well coat
Chain of binding of FAM19A5 protein to full-length ectodomain of LRRC4C protein (Q7Z5A7 44-132): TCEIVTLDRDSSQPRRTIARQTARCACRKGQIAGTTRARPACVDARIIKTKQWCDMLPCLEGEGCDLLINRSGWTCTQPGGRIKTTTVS
Protocol: As described in Example 3, there appeared to be much similarity in the binding domains of the different members of the LRRC4 family. […] Then, recombinant FAM19A5 protein (5 ng/mL) was added in combination with one of the following: (i) LRRC4B (484-576) protein fragment, (ii) LRRC4B (453-576, AA) protein fragment, and (iii) synthetic FB-20 peptide. The plates were incubated at 37° C., and then, the amount of FAM19A5 protein bound to the coated LRRC4, LRRC4B, or LRRC4C proteins was measured using anti-FAM19A5 (1-65) antibody.

[2] = biological target: T1, FAM19A5 isoform 2 - LRRC4B protein complex in HEK293 cells (Homo sapiens, UniProt Q7Z5A7); experiment: Immunofluorescence: dissociation of FAM19A5 from full-length LRRC4B in HEK293 cells; assay type: cell-based; settings: HEK293 cells expressing FAM19A5 isoform 2 and LRRC4B, treated 30 minutes
T1 construct: expressed in transfected cells; host or cells: HEK293
T1 sequence (Q7Z5A7 1-125 isoform Q7Z5A7-2, one chain of several): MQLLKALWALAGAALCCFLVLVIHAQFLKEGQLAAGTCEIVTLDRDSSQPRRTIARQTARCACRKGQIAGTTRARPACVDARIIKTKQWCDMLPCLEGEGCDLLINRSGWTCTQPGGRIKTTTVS
Protocol: Since LRRC4B protein fragments containing the binding domain described in Example 2 (e.g., LRRC4B (453-576); i.e., construct #11 in Table 6) was able to bind to FAM19A5 protein with high affinity, it was next assessed whether such protein fragments could compete with naturally existing LRRC4B protein for binding to FAM19A5 protein, and thereby, dissociate the FAM19A5-LRRC4 protein family complex. Briefly, HEK293 cells expressing both FAM19A5 isoform 2 and LRRC4B protein were treated in vitro for 30 minutes with either LRRC4B (453-576)-hFc or mutant LRRC4B (453-576)-hFc (includes alanine substitutions at positions 488 and 489 of SEQ ID NO: 2; SEQ ID NO: 16) protein fragments. Then, cells were immunostained with anti-FAM19A5 (1-65) and anti-LRRC4B antibodies to determine the expression of FAM19A5 and full-length LRRC4B proteins, respectively. The hFc-fused LRRC4B protein fragments were determined using an anti-hIgG antibody. The nuclei were stained with Hoechst 33342.

[3] = tested on: APP/PS1 mice (Alzheimer mouse model); experiment: Synaptic formation in hippocampal CA1 and CA3 of APP/PS1 mice; assay type: in vivo; settings: 30 mg/kg intravenous, four consecutive weeks, compared to mutant LRRC4B protein fragment
Protocol: FIGS. 16A, 16B, and 16C show the ability of LRRC4B peptide fragment (amino acid residues 453-576 of SEQ ID NO: 2; “WT”) (i.e., SEQ ID NO: 7) to promote synaptic formation in the hippocampal CA1 of APP/PS1 mice. As further described in Example 8, APP/PS1 mice were treated with the LRRC4B peptide fragment (30 mg/kg; intravenous administration) for four consecutive weeks, and then synaptic formation was assessed by fluorescence microscopy using antibodies against SYP and PSD95. Control animals received no treatment (“Cont”) or the mutant LRRC4B peptide fragment […] (i.e., comprising alanine substitutions at positions 488 and 489 of SEQ ID NO: 2; SEQ ID NO: 16). FIG. 16A provides representative fluorescent photomicrographs. FIGS. 16B and 16C show the SYP and PSD95 intensity, respectively.
FIGS. 17A, 17B, and 17C show the ability of LRRC4B peptide fragment (amino acid residues 453-576 of SEQ ID NO: 2; “WT”; SEQ ID NO: 7) to promote synaptic formation in the hippocampal CA3 of APP/PS1 mice. The animals were treated and analyzed as described in FIGS. 16A-16C. FIG. 17A provides representative fluorescent photomicrographs. FIGS. 17B and 17C show the SYP and PSD95 intensity, respectively.
Additionally, to confirm the above effect on neurite outgrowth in vivo, APP/PS1 mice (Alzheimer mouse model) were used. […] Hong et al., Science 352(6286): 712-716 (May 2016). […]

Molecule	inhibition of FAM19A5 binding to coated LRRC4C protein (in words) [1]	dissociation of FAM19A5 from full-length LRRC4B protein [2]	SYP and PSD95 immunoreactivities in CA1 and CA3 [3]
GYTYFTTVTVETLETQPGEE [FB-20]	able to inhibit FAM19A5 protein from binding	–	–
B1	–	largely dissociated from the full-length LRRC4B protein	increased SYP and PSD95 immunoreactivities in CA1 and CA3
